Here are results for two molecules from doi:10.1101/2021.01.14.426688 (bioRxiv, 2021).

Substitutions are numbered along the chain they refer to.

This experiment has as its target ClpXP (ClpX with ClpP protease) (E. coli, UniProt P0A6H1 1-424; P0A6G7 15-207). As to the kind of experiment: ultrafiltration.

Sequence of ClpXP (ClpX with ClpP protease) (P0A6H1 whole entry, chain 1 of 2): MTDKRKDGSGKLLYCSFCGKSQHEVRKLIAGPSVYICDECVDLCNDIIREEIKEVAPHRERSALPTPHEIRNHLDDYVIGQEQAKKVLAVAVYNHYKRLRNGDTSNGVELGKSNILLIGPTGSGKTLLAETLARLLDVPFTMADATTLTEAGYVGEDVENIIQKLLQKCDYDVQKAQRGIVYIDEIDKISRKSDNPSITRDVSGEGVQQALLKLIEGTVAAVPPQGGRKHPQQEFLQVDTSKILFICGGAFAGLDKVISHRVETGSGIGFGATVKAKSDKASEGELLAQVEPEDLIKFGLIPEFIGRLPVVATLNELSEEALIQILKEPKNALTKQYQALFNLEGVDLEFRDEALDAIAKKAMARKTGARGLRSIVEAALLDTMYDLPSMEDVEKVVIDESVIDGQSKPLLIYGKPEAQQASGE
Sequence of ClpXP (ClpX with ClpP protease) (P0A6G7 15-207, chain 2 of 2): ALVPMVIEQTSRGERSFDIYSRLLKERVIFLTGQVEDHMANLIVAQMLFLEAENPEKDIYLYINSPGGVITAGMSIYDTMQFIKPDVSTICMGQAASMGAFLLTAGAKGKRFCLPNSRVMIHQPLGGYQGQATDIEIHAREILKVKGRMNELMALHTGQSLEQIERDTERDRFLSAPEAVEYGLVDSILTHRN

B1: Gfp-IDR_(FtsZ) (Gfp fused to the C-terminal 67 amino acids of E. coli FtsZ, residues 317-383) (domain or fragment, UniProt P0A9A6 317-383, looked up)
chain: MDKRPEITLVTNKQVQQPVMDRYQQHGMAPLTQEQKPVAKVVNDNAPQTAKEPDYLDIPAFLRKQAD
As for B1, the binding result is “binds”.

B2: Gfp-IDR_(FtsZ) mut-1 (Ala substitutions at FtsZ positions 352 through 358) (domain or fragment, E. coli, UniProt P0A9A6 317-383, looked up)
chain: B1 chain with K36A, P37A, V38A, K40A, V41A, V42A
In the case of B2, the binding result is reported as “binds”.
